Experimental data published in patent US9803013B2, “Biological materials and uses thereof” (BioInvent International AB, priority 2005, dated 2017).

Key:
[1] = test system: RPMI-8226 myeloma cells; test: Advanced disseminated MM model, i.v. grafted RPMI-8226 in SCID mice; assay type: in vivo, mouse; settings: 2 mg/kg from five days after i.v. grafting; compared to bortezomib, lenalidomide, melphalan or dexamethasone
Source text: To assess the therapeutic potential of BI-505 for treatment of MM, the anti-myeloma effects of BI-505 were compared to current gold-standard treatment in disseminated experimental models of MM sharing characteristics with human disease. These models resemble the manifestation and progression of human MM disease in many respects, including tumor dissemination and establishment in bone marrow, and the appearance of osteolytic bone-lesions and hypercalcemia (Mitsiades et al., 2003; Yaccoby et al., 1998). Firstly, the anti-myeloma activity of BI-505 was compared with currently used treatments in an advanced disseminated MM model comprising RPMI-8226 myeloma cells. In this model, therapeutic treatment with 2 mg/kg BI-505 was started five days after intravenous grafting of MM cells to allow for homing and establishment of MM cells in bone marrow.
All studies were conducted in accordance with guidelines of the Lund University Hospital, Sweden or University of Utah, Salt Lake City, USA following approval from the local ethical committee for animal care and use. […] The role of macrophages and NK cells for BI-505 in vivo antitumor activity was assessed using anti-asialo antibody treatment, clodronate liposome treatment or NK-cell deficient mice. […]

[2] = test system: primary patient MM cells; test: SCID-hu mouse model of multiple myeloma; assay type: in vivo
Protocol: Bone marrow cells (>20% plasma cells) from myeloma patients (two patients in experiment 1 [top panel] and two different patients in experiment 2 [lower panel]) were injected into transplanted human fetal bones of SCID-hu mice. Four weeks after myeloma cell inoculation mice were divided into four groups to yield similar mean hIgG levels between groups, each group comprising mice grafted with MM cells from the different patient donors used in the experiment, and twice weekly treatment with 2 mg/kg BI-505, 1 mg/kg bortezomib or 2 mg/kg control human IgG was started (arrow). […] Graphs show mean hIgG concentrations.
Primary human MM cells depend on interactions with bone marrow stromal cells to proliferate and survive. The SCID-hu mouse harbors a human microenvironment where primary patient MM cells proliferate and induce pathology similar to human clinical MM (Yaccoby et al., 1998). MM cell derived human IgG titers were detected (>10 μg/ml) in the serum of SCID-hu mice four weeks after implantation of human MM cells to transplanted human bones, at which time treatment with antibodies (2 mg/kg) or bortezomib (1 mg/kg) began. Human IgG titers increased steadily in control treated SCID-hu mice over the course of experimentation to reach maximal concentrations of 40±5 μg/ml just before sacrifice (FIG. 18B and FIG. 19). […] Two independent experiments were performed with similar results (FIG. 18B and FIG. 19), each with MM cells from two different patient donors (n=4).
Human fetal femurs and tibias, obtained at 17 to 22 gestational weeks, were cut into fragments and implanted subcutaneously in SCID mice (SCID-hu) at age 6 to 8 weeks. Each animal was implanted with one bone fragment. Four weeks after bone implantation, 2 to 14×10^6 bone marrow cells from each patient (two patients per experiment for a total of four patients in two independent experiments, n=4), containing>20% plasma cells were injected directly into the human bone of 6 to 8 SCID-hu mice in a final volume of 30 to 40 μl of phosphate-buffered saline (PBS). One group of mice was implanted with bone only and served as “healthy” bone control. Mouse sera were serially monitored for human immunoglobulin (hIg) and the isotype levels were used as an indicator of myeloma cell growth by elisa. When hIg level reached 10 μg/mL or higher in 2 consecutive measurements after 4 weeks of injection of the tumor cells, the mice were divided into four groups to yield similar mean hIgG levels between groups, each group comprising mice grafted with MM cells from the different patient donors used in each experiment. The four treatment groups were: healthy control group (no myeloma cells injected and no drug treatment), isotype control group (myeloma cells injected and treated with isotype control IgG, 2 mg/kg, i.p., twice weekly), BI505 group (myeloma cells injected and treated with BI505, 2 mg/kg, i.p., twice weekly) and bortezomib group (myeloma cells injected and treated with 1 mg/kg, i.p., twice weekly). In some graphs hIgG levels were normalized to pretreatment (4 weeks) levels and the percent increase or decrease in hIgG levels as a function of treatment and time was analyzed. Normalized data from animals receiving the same treatment (control IgG, BI-505 or bortezomib) but grafted with MM cells from each of the four different patient donors in the two experiments were pooled and statistical difference was assessed by grouped 2-way ANOVA test and Bonferroni's posttest using GraphPad Prism 5 software. Patient myeloma cells were taken after informed consent and with the approval of the local ethics committee. For x-radiography evaluation and quantification of bone mineral density (BMD) mice in the four groups were sacrificed and the implanted human bones were taken out and fixed in 10% formalin solution. Radiographs were taken with an AXR Minishot-100 beryllium source instrument (Associated X-Ray Imaging Corp., Haverhill, Mass., USA) and 100 s exposure at 30 kV. […]

B1: B11: fully human IgG1 antibody specific for ICAM-1; VH and VL sequences of FIG. 10 (SEQ ID NOs. 6 and 8) (antibody, listed as Homo sapiens, V domains shown)
VH: EVQLLESGGGLVQPGGSLRLSCAASGFTFSNAWMSWVRQAPGKGLEWVAFIWYDGSNKYYADSVKGRFTISRDNSKNTLYLQMNSLRAEDTAVYYCARYSGWYFDYWGQGTLVTVSS
VL: QSVLTQPPSASGTPGQRVTISCTGSSSNIGAGYDVHWYQQLPGTAPKLLIYDNNNRPSGVPDRFSGSKSGTSASLAISGLRSEDEADYYCQSYDSSLSAWLFGGGTKLTVLG
survival and disease onset [1]: significantly enhanced survival and delayed disease onset
serum hIgG relative to pre-treatment levels ([2]; 2 mg/kg twice weekly from four weeks after MM cell implantation): 91±22%
bone osteoclasts ([2]; TRAP staining, compared to control-treated mice): reduced numbers of bone osteoclasts
bone mineral density ([2]; X-radiography of implanted human bones): decreased loss of bone mineral density
serum human IgG levels ([2]; antibody 2 mg/kg or bortezomib 1 mg/kg twice weekly): halted or reduced serum human IgG levels to below pre-treatment levels
tumor burden in human bone implants ([2]; human CD138 immunohistochemistry): decreased tumor burden
